B1: IL2ss-6xHis-hReelin R3-R6 CT-H3447R (protein)
chain: MYRMQLLSCIALSLALVTNSGGHHHHHHGGSRFSSTAPVLLQYSHDAGMSWFLVKEGCYPASAGKGCEGNSRELSEPTMYHTGDFEEWTRITIVIPRSLASSKTRFRWIQESSSQKNVPPFGLDGVYISEPCPSYCSGHGDCISGVCFCDLGYTAAQGTCVSNVPNHNEMFDRFEGKLSPLWYKITGAQVGTGCGTLNDGKSLYFNGPGKREARTVPLDTRNIRLVQFYIQIGSKTSGITCIKPRTRNEGLIVQYSNDNGILWHLLRELDFMSFLEPQIISIDLPQDAKTPATAFRWWQPQHGKHSAQWALDDVLIGMNDSSQTGFQDKFDGSIGGGTLDSRKWLLHPGGTKMPVCGSTGDALVFIEKASTRYVVSTDVAVNEDSFLQIDFAVSCSVTDSCYAIELEYSVDLGLSWHPLVRDCLPTNVECSRYHLQRILVSDTFNKWTRITLPLPPYTRSQATRFRWHQPAPFDKQQTWAIDNVYIGDGCIDMCSGHGRCIQGNCVCDEQWGGLYCDDPETSLPTQLKDNFNRAPSSQNWLTVNGGKLSTVCGAVASGMALHFSGGCSRLLVTVDLNLTNAEFIQFYFMYGCLITPNNRNQGVLLEYSVNGGITWNLLMEIFYDQYSTGGSGGSTRKQNYMMNFSRQHGLRRFYNRRRRSLRRYP
B2: Il2ss-flagMini-RELNFspCR50R5-6CtermH3447R (protein)
chain: MYRMQLLSCIALSLALVTNSGGDYKDDDDKTGGAAGYYPRFSPFFFLCTHHGELEGDGEQGEVLISLHIAGNPTYYVPGQEYHVTISTSTFFDGLLVTGLYTSTSVQASQSIGGSSAFGFGIMSDHQFGNQFMCSVVASHVSHLPTTNLSFIWIAPPAGTGCVNFMATATHRGQVIFKDALAQQLCEQGAPTDVTVHPHLAEIHSDSIILRDDFDSYHQLQLNPNIWVECNNCETGEQCGAIMHGNAVTFCEPYGPRELITTGLNTTTASVLQFSIGSGSCRFSYSDPSIIVLYAKNNSADWIQLEKIRAPSNVSTIIHILYLPEDAKGENVQFQWKQENLRVGEVYEACWALDNILIINGSRGGQTNATRFRLWQPYNNGKKEEIWIVDDFIIDGNNVNNPVMLLDTFDFGPREDNWFFYPGGNIGLYCPYSSKGAPEEDSAMVFVSNEVGEHSITTRDLNVNENTIIQFEINVGCSTDSSSADPVRLEFSRDFGATWHLLLPLCYHSSSHVSSLCSTEHHPSSTYYAGTMQGWRREVVHFGKLHLCGSVRFRWYQGFYPAGSQPVTWAIDNVYIGPQCEEMCNGQGSCINGTKCICDPGYSGPTCKISTKNPDFLKDDFEGQLESDRFLLMSGGKPSRKCGILSSGNNLFFNEDGLRMLMTRDLDLSHARFVQFFMRLGCGKGVPDPRSQPVLLQYSLNGGLSWSLLQEFLFSNSSNVGRYIALEIPLKARSGSTRLRWWQPSENGHFYSPWVIDQILIGGNISGNMVLEDDFTTLDSRKWLLHPGGTKMPVCGSTGDALVFIEKASTRYVVSTDVAVNEDSFLQIDFAVSCSVTDSCYAIELEYSVDLGLSWHPLVRDCLPTNVECSRYHLQRILVSDTFNKWTRITLPLPPYTRSQATRFRWHQPAPFDKQQTWAIDNVYIGDGCIDMCSGHGRCIQGNCVCDEQWGGLYCDDPETSLPTQLKDNFNRAPSSQNWLTVNGGKLSTVCGAVASGMALHFSGGCSRLLVTVDLNLTNAEFIQFYFMYGCLITPNNRNQGVLLEYSVNGGITWNLLMEIFYDQYSKPGFVNILLPPDAKEIATRFRWWQPRHDGLDQNDWAIDNVLISGSASTRKQNYMMNFSRQHGLRRFYNRRRRSLRRYP

Columns and labels:
pDAB1 (Tyr232) [1] = experiment: HRECs treated 5 minutes with recombinant mini-RELN, pDAB1 western blot; type: cell-based, human; conditions: 5 minutes, 4 ug/mL recombinant protein
Method: For in vitro screening of constructs using recombinant mini-RELN on HRECs, the cells were cultured in EBM-2 media enriched with EGM-2 Single Quots (Lonza) at 37° C. and 5% CO2 and experimentally tested at passage 7. 24 h prior experiment, cells were plated on a 6-well plate at 500,000 cells/mL. Two hours before the experiment, the cells were washed with PBS to remove residual growth media and then incubated with a starving media including EBM-2, 1% GlutaMax+0.2% Normicin. Treatments was conducted using recombinant mini RELN constructs obtained from Innovagen and Recombinant Mouse Reelin Protein from R&D systems (3820-MR-025/CF). Each treatment was incubated for 5 minutes at 4 ug/mL concentration and cells were subsequently harvested in lysis buffer was applied constituted of RIPA (Cell signaling), proteases inhibitors (cOmplete™, Mini, EDTA-free Protease Inhibitor Cocktail, Roche), phosphatases inhibitors (PhosSTOP, Roche), 1 μL of proteasome inhibitor MG-132 10 mM, 1% Triton X 100. The lysates were scraped and centrifugated at 15000 rpm for 10 minutes at 4° C. Total protein levels were quantified via BCA assay. For Western Blotting, 3.5 ug protein homogenates were prepared under reducing and denaturing conditions using Laemmli buffer enriched with 10 mM DTT and 5 min boiling. Samples were electrophoretically separated in a 4-20% Gel at 90V and protein transferred to a PVDF membrane using iBlot™ 2 Dry Blotting System. The membrane was blocked using Intercept® (TBS) Blocking Buffer for 2 hours. We detected pDAB1 (Tyr232; 1:1000, rabbit, #3325 Cell signaling), and total protein staining (Licor). Antibodies were diluted using Intercept® (TBS) Blocking Buffer and incubated overnight at 4C under gentle shaking. Prior secondary antibody incubation, membranes were washed 2 times using TBS-T for 10 minutes. As secondary antibodies we used IR Dye 800n CW Goat-anti-Rabbit (925-32211, Licor) diluted 1:10000 in blocking buffer for 1 h at room temperature under gentle shaking. Membranes were washed three times with TBST-T prior IR detection using Odyssey imager. To quantify the results, each band was quantified using ImageJ and data expressed as pDABL:total protein ratio normalized to the control.

pDAB1 (Tyr232) [2] = experiment: HRECs treated 5 minutes with HEK 293T-derived mini-RELN media, pDAB1 western blot; type: cell-based, human; conditions: HEK 293T-derived media 1:1, 1:4, 1:14, 5 minutes
Method: The effect of in vitro treatment with RELN or miniRELN protein was also evaluated. HRECs were cultured in EBM-2 media enriched with EGM-2 Single Quots (Lonza) at 37° C. and 5% CO2 and experimentally tested at passage 7. 24 h prior experiment, cells were plated on a 6-well plate at 500,000 cells/mL. Two hours before the experiment, the cells were washed with PBS to remove residual growth media and then incubated with a starving media including EBM-2, 1% GlutaMax+0,2% Normicin. Treatments was conducted using media derived from HEK 293T cells transiently transfected for 24 h with different mini-RELN constructs in the presence of Lipofectamine 2000. HEK-derived Lipofectamine2000-media was used as negative control. HEK 293T-derived media was tested at different ratio 1:1, 1:4, and 1:14 (Transfected media:Starving media). Each treatment was incubated for 5 minutes and cells were subsequently harvested in lysis buffer was applied constituted of RIPA (Cell signaling), proteases inhibitors (cOmplete™, Mini, EDTA-free Protease Inhibitor Cocktail, Roche), phosphatases inhibitors (PhosSTOP, Roche), 1 μL of proteasome inhibitor MG-132 10 mM, 1% Triton X 100. The lysates were scraped and centrifugated at 15000 rpm for 10 minutes at 4° C. Total protein levels were quantified via BCA assay. […] We detected pDAB1 (Tyr232; 1:1000, rabbit, #3325 Cell signaling), and Beta actin (1:5000, mouse, #66009-1-Ig, Proteintech. Antibodies were diluted using Intercept® (TBS) Blocking Buffer and incubated overnight at 4C under gentle shaking. Prior secondary antibody incubation, membranes were washes 2 times using TBS-T for 10 minutes. As secondary antibodies we used IR Dye 800n CW Goat-anti-Rabbit (925-32211, Licor) and IR Dye 680 CW Goat-anti-Mouse (925-68070, Licor) both diluted 1:10000 in blocking buffer for 1 h at room temperature under gentle shaking. Membranes were washed three times with TBS-T prior IR detection using Odyssey imager. To quantify the results, each band was quantified using ImageJ and data expressed as pDAB1:βActin ratio normalized to the control. […]

Molecule | pDAB1 levels (pDAB1 (Tyr232) [1]) | pDAB1 / Dab1 signaling activation (pDAB1 (Tyr232) [2])
B1 | increased pDAB1 levels | efficacy
B2 |  | more robust compared to controls and compared to 233A

From US20260139017A1, “COMPOSITIONS AND METHODS USING REELIN IN ALZHEIMER'S DISEASE” (The General Hospital Corporation, priority 2022, published 2026)
